Laboratory results published in patent US20180118786A1, “NOVEL lNHIBITORS OF THE ENZYME ACTIVATED FACTOR XII (FXIIA)” (ECOLE POLYTECHNIQUE FEDERALE DE LAUSANNE (EPFL), priority 2015, published 2018).

Experiments:
trypsin = trypsin (Homo sapiens, UniProt P07477); experiment: Specificity FXII618 vs CTI, trypsin; format: biochemical; conditions: at a concentration as low as 20 nM
[1] = system: intrinsic pathway of coagulation; experiment: aPTT in human plasma (Example 1); format: biochemical; conditions: citrated platelet poor plasma, 100 μg/mL inhibitor
Method: aPTT, PT and FXII coagulant activity (FXII:c) measurements Coagulation times (aPTT, PT) and FXIIa activity were determined in human plasma using an automated blood coagulation analyzer (Sysmex CS-5100, Siemens, Eschborn, Germany) with according to the manufacturer's instructions (Siemens). Extrinsic coagulation was triggered with Innovin® (recombinant human tissue factor, synthetic phospholipids and calcium in stabilized HEPES buffer system; Dade Behring/Simens). Intrinsic coagulation was triggered with Pathromtin* SL (Siemens). Human plasma used in this study was derived from a pool of fresh frozen plasma units provided by the Service Regional Vaudois de Transfusion Sanguine, Switzerland.
Coagulation times (aPTT, PT) and FXIIa activity were determined, at least in duplicate, in human plasma using an automated blood coagulation analyzer (Sysmex CA-7000) with standard reagents according to the manufacturer's instructions (Siemens Healthcare, Eschborn, Germany). Human plasma used in this study was derived from a pool of fresh frozen plasma units provided by the Service Regional Vaudois de Transfusion Sanguine, Switzerland.

[2] = system: intrinsic pathway (contact activation); experiment: Thrombin generation assay by CAT triggered by ellagic acid; format: biochemical, human; conditions: ellagic acid trigger, 100 μg/mL
Method: (§1) Thrombin generation was performed as previously described with some modifications.30 In brief, 60 μL platelet poor plasma (PPP), 20 μL FXIIa inhibitor/HA buffer (Hepes 20 mM, NaCl 140 mM, pH 7.4, 5 mg/mL BSA), and 20 μL PPP reagent, PPP LOW reagent, MP reagent or Actin FS (1:170 diluted in HA buffer) were mixed in a 96-well microtiter plate (Immulon 2HB; Thermo Fisher Scientific) and incubated for 15 min at 37° C. Thrombin generation was triggered by the addition of 20 μL of substrate/calcium chloride buffer (FLUKA) at 37° C. Samples were tested in triplicate for each condition. Fluorogenic thrombin substrate hydrolysis was measured every 20 s for 120 min on a microplate fluorometer (Fluoroskan Ascent FL; Thermo Fisher Scientific) with a 390/460-nm (excitation/emission) filter set. Data analysis was performed on the Thrombinoscope software (Synapse By). PPP reagent (TF […], PL 4 μM), PPP LOW reagent (TF […], PL 4 μM), MP reagent (PL 4 μM), thrombin calibrator and FLUKA were purchased from Synapse By.

[3] = system: thrombin generation in platelet poor plasma; experiment: Thrombin generation assay by CAT, TF-triggered or without trigger; format: biochemical, human; set-up: lag time: unit not given here; conditions: 100 μg/mL inhibitor
Method: as §1
Venous blood was collected from healthy volunteers by antecubital venipuncture with 19-gauge needles in 3,2% (w/v) citrated Monovette plastic tubes. In order to minimize contact activation, the first collection tube containing EDTA was discarded according to standard procedures. […] Blood was then processed to PPP by an initial centrifugation step at 2,000 g for 5 min followed by a second centrifugation step at 10,000 g for 10 min. Plasma aliquots were stored at −80 until analysis.

[4] = system: thrombin generation in platelet poor plasma; experiment: as above; format: biochemical, human; conditions: 1 pM TF, 100 μg/mL inhibitor
FXIIa = conditions: cited from earlier work
[5] = absence of extrinsic- or intrinsic-specific trigger

FXIIa, sequence (P00748 373-615 limits assumed, other chains not shown): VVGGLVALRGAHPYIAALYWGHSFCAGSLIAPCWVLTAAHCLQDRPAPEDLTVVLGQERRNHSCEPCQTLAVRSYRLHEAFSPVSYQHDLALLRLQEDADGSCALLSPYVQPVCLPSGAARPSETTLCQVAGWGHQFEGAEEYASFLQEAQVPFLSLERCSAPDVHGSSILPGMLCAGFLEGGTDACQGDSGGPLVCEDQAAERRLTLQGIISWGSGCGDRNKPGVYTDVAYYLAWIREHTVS

- inhibition of trypsin activity (trypsin): significantly inhibits
B1: CTI: 13.6 kDa protein isolated from corn seeds inhibiting FXIIa (protein)
chain: SAGTSCVPGWAIPHNPLPSCRWYVTSRTCGIGPRLPWPELKRRCCRELADIPAYCRCTALSILMDGAIPPGPDAQLEGRLEDLPGCPREVQRGFAATLVTEAECNLATISGVAECPWILGGGTMPSK
- aPTT [1]: 65.4 ± 0.5 s
- reduction of ETP [2]: ~90%
- reduction of peak [2]: > 96%
- lag time ([3]; 0.25 pM TF): 8.0±0.2
- lag time [3, 5]: 38.7±1.9
- peak [3, 5]: 78.0±6.8
- effect on thrombin generation [4]: no significant effect
- Ki (FXIIa): 24 nM
